Test results as given in US20140220596A1 (MEDICINAL BIOCONVERGENCE RESEARCH CENTER, published 2014).
Blank lines part the entries; values can stand above or below the molecule they belong to.

How the values were obtained:
[1] = target: Fc-fused soluble cadherin-18 (extracellular domain of CDH18 fused to the Fc fragment of human IgG1) (human) (UniProt Q13634); assay: SPR (ProteOn XPR36), Fc-cadherin amine-coupled to GLC chip, GRS as analyte, Langmuir 1:1 model
[2] = target: T1, His-tagged recombinant human glycyl-tRNA synthetase (GRS), 685 amino acids (human, UniProt P41250 55-739); assay: ELISA: plate coated with His-GRS or BSA, Fc-fused cadherin added, detected with anti-human IgG1 Fc-HRP; axis OD 490nm
T1 construct: Expressed in E. coli; also called His-GRS; his-tagged GRS; not shown: His tag from vector pET-28a (EcoRI/XhoI)
T1 sequence: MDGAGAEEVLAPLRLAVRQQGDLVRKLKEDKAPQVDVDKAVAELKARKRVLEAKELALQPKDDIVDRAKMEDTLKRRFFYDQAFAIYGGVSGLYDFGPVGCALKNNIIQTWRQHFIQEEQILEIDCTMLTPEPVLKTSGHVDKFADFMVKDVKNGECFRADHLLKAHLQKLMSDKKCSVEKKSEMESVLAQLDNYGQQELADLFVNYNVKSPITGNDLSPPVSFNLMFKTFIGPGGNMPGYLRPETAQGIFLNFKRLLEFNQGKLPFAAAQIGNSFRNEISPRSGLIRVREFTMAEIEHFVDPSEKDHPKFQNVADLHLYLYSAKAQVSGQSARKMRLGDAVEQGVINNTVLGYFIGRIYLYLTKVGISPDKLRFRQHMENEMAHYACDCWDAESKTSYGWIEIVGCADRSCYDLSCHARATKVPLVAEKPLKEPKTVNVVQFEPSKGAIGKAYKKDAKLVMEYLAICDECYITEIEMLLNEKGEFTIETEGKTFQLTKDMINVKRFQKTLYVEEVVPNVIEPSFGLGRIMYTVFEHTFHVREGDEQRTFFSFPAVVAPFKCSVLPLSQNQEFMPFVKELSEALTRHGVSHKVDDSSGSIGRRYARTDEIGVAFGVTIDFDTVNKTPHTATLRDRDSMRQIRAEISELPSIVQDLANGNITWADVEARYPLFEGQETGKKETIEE
Experimental: (A) A panel of Fc-fused soluble cadherin family proteins was bound to His-tagged GRS or to BSA-coated plates, and complexes were detected with the IgG1 Fc-HRP (Thermo) reagent. (B) To confirm the binding between cadherins and GRS, Fc-CDH2, 6 and 18 were incubated with His-GRS. Fc-CDHs were precipitated with protein A/G agarose and co-precipitated GRS was determined by immunoblotting. (C) To calculate the equilibrium dissociation constant (IQ), immobilized Fc-fused (to gold chips) cadherins were incubated with GRS (31.25 nM˜1 uM). Binding of GRS to CDH6 was determined by surface plasmon resonance and expressed as resonance units (RU). (D) To confirm the binding between CDH6 and GRS domain peptides, Fc-CDH6 was incubated with different domains (F1, 2, 3 and 4) of GRS that were expressed as the GST fusion proteins. GST-GRS proteins were precipitated with GSH-sepharose beads and co-precipitated CDH6 was determined by immunoblotting. (E) Five difference cancers cells were determined for the expression of CDH6 by immunoblotting. (F) HCT116 cells were transfected with non-specific siRNA controls (si-con) or two differently designed siRNAs targeting CDH6 (#1 and #2), treated with biotinylated GRS (15 nM), and the binding of GRS was analyzed by immunoblotting. (G) HCT116 cells were transfected with si-con and si-CDH6 as described above, and cell binding of GRS was measured by FACS analysis. (H) HCT116 cells were incubated with His-GRS (150 nM). To neutralize the effects of GRS, Fc-fused CDH6 (300 nM) was added and the cell viability was determined by the MTT assay. Error bars represent standard deviation. (I) The binding between CDH6 and GRS domain peptides was again confirmed by ELISA assay.
To identifying the receptor of GRS, a Maxisorp plate (Nunc, Rochester, N.Y.) was used for an ELISA detection. The plate were coated with purified his-tagged GRS (1 ug/ml) or BSA (1 ug/ml) in phosphate buffer saline and then blocked (PBS, 4% non-fat milk). Fc-fusion cadherin family proteins (1 ug/ml) were added to the plate and after washing with PBST (0.05% Tween20), the plates were incubated with anti-human IgG1 Fc-HRP (Thermo, Waltham, Mass.). […]

[3] = target: T1, His-tagged recombinant human …; assay: SPR (ProteOn XPR36), Fc-cadherin amine-coupled to GLC chip, GRS as analyte, Langmuir 1:1 model
Experimental: Binding of GRS to CDH6 was determined by surface plasmon resonance and expressed as resonance units (RU). (D) To confirm the binding between CDH6 and GRS domain peptides, Fc-CDH6 was incubated with different domains (F1, 2, 3 and 4) of GRS that were expressed as the GST fusion proteins. GST-GRS proteins were precipitated with GSH-sepharose beads and co-precipitated CDH6 was determined by immunoblotting. (E) Five difference cancers cells were determined for the expression of CDH6 by immunoblotting. (F) HCT116 cells were transfected with non-specific siRNA controls (si-con) or two differently designed siRNAs targeting CDH6 (#1 and #2), treated with biotinylated GRS (15 nM), and the binding of GRS was analyzed by immunoblotting. (G) HCT116 cells were transfected with si-con and si-CDH6 as described above, and cell binding of GRS was measured by FACS analysis. […] To neutralize the effects of GRS, Fc-fused CDH6 (300 nM) was added and the cell viability was determined by the MTT assay. […]
Binding of GRS to the cadherin-Fc fusion proteins was determined by the SPR technique using a ProteOn XPR36 Protein Interaction Array System (BioRad). […] The binding was determined by the change in resonance units (RU), where one resonance unit is defined as 1 pg/mm². The Sensogram was processed by subtracting the binding response recorded from the control surface. […]

Kd [1]: 1.25 nM
Molecule: His-tagged recombinant human glycyl-tRNA synthetase (GRS), 685 amino acids (from UniProt P41250 55-739) (enzyme)

B1: CDH13 (Fc fusion, not shown: a dimerising Fc or GST; small tags and cut ends)
chain: SIVVSPILIPENQRQPFPRDVGKVVDSDRPERSKFRLTGKGVDQEPKGIFRINENTGSVSVTRTLDREVIAVYQLFVETTDVNGKTLEGPVPLEVIVIDQNDNRPIFREGPYIGHVMEGSPTGTTVMRMTAFDADDPATDNALLRYNIRQQTPDKPSPNMFYIDPEKGDIVTVVSPALLDRETLENPKYELIIEAQDMAGLDVGLTGTATATIMIDDKNDHSPKFTKKEFQATVEEGAVGVIVNLTVEDKDDPTTGAWRAAYTIINGNPGQSFEIHTNPQTNEGMLSVVKPLDYEISAFHTLLIKVENEDPLVPDVSYGPSSTATVHITVLDVNEGPVFYPDPMMVTRQEDLSVGSVLLTVNATDPDSLQHQTIRYSVYKDPAGWLNINPINGTVDTTAVLDRESPFVDNSVYTALFLAIDSGNPPATGTGTLLITLEDVNDNAPFIYPTVAEVCDDAKNLSVVILGASDKDLHPNTDPFKFEIHKQAVPDKVWKISKINNTHALVSLLQNLNKANYNLPIMVTDSGKPPMTNITDLRVQVCSCRNSKVDCNAAG
notes: one of the remaining CDHs (group m5); also called Fc-CDH13; Fc-fused soluble cadherin-13
binding result [2]: no binding (tested: 1 ug/ml (single concentration))

B2: CDH16 (Fc fusion, not shown: a dimerising Fc or GST; small tags and cut ends)
chain: KAQPAELSVEVPENYGGNFPLYLTKLPLPREGAEGQIVLSGDSGKATEGPFAMDPDSGFLLVTRALDREEQAEYQLQVTLEMQDGHVLWGPQPVLVHVKDENDQVPHFSQAIYRARLSRGTRPGIPFLFLEASDRDEPGTANSDLRFHILSQAPAQPSPDMFQLEPRLGALALSPKGSTSLDHALERTYQLLVQVKDMGDQASGHQATATVEVSIIESTWVSLEPIHLAENLKVLYPHHMAQVHWSGGDVHYHLESHPPGPFEVNAEGNLYVTRELDREAQAEYLLQVRAQNSHGEDYAAPLELHVLVMDENDNVPICPPRDPTVSIPELSPPGTEVTRLSAEDADAPGSPNSHVVYQLLSPEPEDGVEGRAFQVDPTSGSVTLGVLPLRAGQNILLLVLAMDLAGAEGGFSSTCEVEVAVTDINDHAPEFITSQIGPISLPEDVEPGTLVAMLTAIDADLEPAFRLMDFAIERGDTEGTFGLDWEPDSGHVRLRLCKNLSYEAAPSHEVVVVVQSVAKLVGPGPGPGATATVTVLVERVMPPPKLDQESYEASVPISAPAGSFLLTIQPSDPISRTLRFSLVNDSEGWLCIEKFSGEVHTAQSLQGAQPGDTYTVLVEAQDTDEPRLSASAPLVIHFLKAPPAPALTLAPVPSQYLCTPRQDHGLIVSGPSKDPDLASGHGPYSFTLGPNPTVQRDWRLQTLNGSHAYLTLALHWVEPREHIIPVVVSHNAQMWQLLVRVIVCRCNVEGQCMRKVGRMKGMPTKLSA
notes: one of the remaining CDHs (group m5); also called Fc-CDH16; Fc-fused soluble cadherin-16
binding result [2]: no binding (tested: 1 ug/ml (single concentration))

B3: CDH20 (Fc fusion, not shown: a dimerising Fc or GST; small tags and cut ends)
chain: SWVWNQFFVLEEYTGTDPLYVGKLHSDMDRGDGSIKYILSGEGAGIVFTIDDTTGDIHAIQRLDREERAQYTLRAQALDRRTGRPMEPESEFIIKIQDINDNEPKFLDGPYVATVPEMSPVGTSVIQVTATDADDPTYGNSARVVYSILQGQPYFSVDSKTGVIRTALMNMDREAKEYYEVIIQAKDMGGQLGGLAGTTTVNITLSDVNDNPPRFPQKHYQMSVLESAPISSTVGRVFAKDLDEGINAEMKYTIVDGDGADAFDISTDPNFQVGIITVKKPLSFESKKSYTLKVEGANPHLEMRFLNLGPFQDTTTVHISVEDVDEPPVFEPGFYFVEVPEDVAIGTTIQIISAKDPDVTNNSIRYSIDRSSDPGRFFYVDITTGALMTARPLDREEFSWHNITVLAMEMNNPSQVGSVPVTIKVLDVNDNAPEFPRFYEAFVCENAKAGQLIQTVSAVDQDDPRNGQHFYYSLAPEAANNPNFTIRDNQDNTARILTRRSGFRQQEQSVFHLPILIADSGQPVLSSTGTLTIQVCSCDDDGHVMSCSPEAYMLPVSLSR
notes: one of the remaining CDHs (group m5); also called Fc-CDH20; Fc-fused soluble cadherin-20
binding result [2]: no binding (tested: 1 ug/ml (single concentration))

Kd [3]: 3.4 nM
B4: Fc-fused soluble cadherin-6 (extracellular domain of CDH6 fused to the Fc fragment of human IgG1) (Fc fusion)
chain: SWMWNQFFLLEEYTGSDYQYVGKLHSDQDRGDGSLKYILSGDGAGDLFIINENTGDIQATKRLDREEKPVYILRAQAINRRTGRPVEPESEFIIKIHDINDNEPIFTKEVYTATVPEMSDVGTFVVQVTATDADDPTYGNSAKVVYSILQGQPYFSVESETGIIKTALLNMDRENREQYQVVIQAKDMGGQMGGLSGTTTVNITLTDVNDNPPRFPQSTYQFKTPESSPPGTPIGRIKASDADVGENAEIEYSITDGEGLDMFDVITDQETQEGIITVKKLLDFEKKKVYTLKVEASNPYVEPRFLYLGPFKDSATVRIVVEDVDEPPVFSKLAYILQIREDAQINTTIGSVTAQDPDAARNPVKYSVDRHTDMDRIFNIDSGNGSIFTSKLLDRETLLWHNITVIATEINNPKQSSRVPLYIKVLDVNDNAPEFAEFYETFVCEKAKADQLIQTLHAVDKDDPYSGHQFSFSLAPEAASGSNFTIQDNKDNTAGILTRKNGYNRHEMSTYLLPVVISDNDYPVQSSTGTVTVRVCACDHHGNMQSCHAEALIHPTGLSTGA
notes: also called Fc-CDH6; Fc-fused CDH6; not shown: Fc fragment of human IgG1

B5: Fc-fused soluble cadherin-2 (extracellular domain of CDH2 fused to the Fc fragment of human IgG1) (Fc fusion, UniProt P19022 160-724, looked up)
chain: DWVIPPINLPENSRGPFPQELVRIRSDRDKNLSLRYSVTGPGADQPPTGIFIINPISGQLSVTKPLDREQIARFHLRAHAVDINGNQVENPIDIVINVIDMNDNRPEFLHQVWNGTVPEGSKPGTYVMTVTAIDADDPNALNGMLRYRIVSQAPSTPSPNMFTINNETGDIITVAAGLDREKVQQYTLIIQATDMEGNPTYGLSNTATAVITVTDVNDNPPEFTAMTFYGEVPENRVDIIVANLTVTDKDQPHTPAWNAVYRISGGDPTGRFAIQTDPNSNDGLVTVVKPIDFETNRMFVLTVAAENQVPLAKGIQHPPQSTATVSVTVIDVNENPYFAPNPKIIRQEEGLHAGTMLTTFTAQDPDRYMQQNIRYTKLSDPANWLKIDPVNGQITTIAVLDRESPNVKNNIYNATFLASDNGIPPMSGTGTLQIYLLDINDNAPQVLPQEAETCETPDPNSINITALDYDIDPNAGPFAFDLPLSPVTIKRNWTITRLNGDFAQLNLKIKFLEAGIYEVPIIITDSGNPPKSNISILRVKVCQCDSNGDCTDVDRIVGAGLGTGA
notes: extracellular domain; also called Fc-CDH2; not shown: Fc fragment of human IgG1
binding result [2]: no binding (tested: 1 ug/ml (single concentration))
